Changes are numbered by the printed parent chain. Values belong to the binder of their own block, whether it stands above or below them.
Legend:
huNav1.7α + β1-β2-β3 = molecular target: T1, huNav1.7α + β1-β2-β3 (human, UniProt Q15858 1-1988; A5A6L6 19-218; O60939 30-215; Q2KI11 23-215); assay: binding FACS, CHO FlpIn cells
T1 construct: Cell line (CHO FlpIn, HEK FlpIn, transient HEK293T) is named under assay; also called huNav1.7-beta1-beta2-beta3; human Nav1.7α with Navβ1, Navβ2 and Navβ3
Procedure: (§1) Binding of the ISVDs to cell-expressed Nav1.7α was detected via murine anti-Flag (Sigma, catalog #F1804). Briefly, cells were resuspended in FACS buffer (PBS, 10% FBS, NaN₃) and transferred to a 96-well V-bottom plate at 1×10^5 cells/well. Purified FLAG3-tagged ISVD was diluted in FACS buffer and added to the cells for 30 minutes at 4° C. […] Prior to the read-out, the samples were resuspended in 1 μg/mL propidium iodide (Sigma, catalog #P4170) to exclude dead cells. Between each step, the cells were centrifuged for 5 minutes at 200 grams and washed with 100 μL/well FACS buffer.

rhNav1.7α + β1-β2-β3 = molecular target: T2, rhNav1.7α + β1-β2-β3 (rhesus monkey); assay: binding FACS, CHO FlpIn cells
T2 construct: also called rhNav1.7-beta1-beta2-beta3; rhesus Nav1.7α
Procedure: as §1

Bmax (huNav1.7α + β1-β2-β3): 100%
EC50 (huNav1.7α + β1-β2-β3): 6.4 nM
Bmax (rhNav1.7α + β1-β2-β3): 84%
EC50 (rhNav1.7α + β1-β2-β3): 18 nM
B1: F010302343 (VHH)
VHH: EVQLVESGGGVVQPGGSLRLSCAASSRQFIRDVFTGWYRQAPGKQRELVARIYESGNTQYADSAKGRFTISRDNAKKTVYLQMNSLRPEDTALYYCLFSGTISTGREYRSGDYWGQGTLVTVSS

Bmax (huNav1.7α + β1-β2-β3): 100%
EC50 (huNav1.7α + β1-β2-β3): 6.7 nM
Bmax (rhNav1.7α + β1-β2-β3): 95%
EC50 (rhNav1.7α + β1-β2-β3): 14 nM
B2: F010302348 (VHH)
VHH: B1 VHH with S26H, Q28A, V33L, Q59N

Bmax (huNav1.7α + β1-β2-β3): 100%
EC50 (huNav1.7α + β1-β2-β3): 3.7 nM
binding result (rhNav1.7α + β1-β2-β3): no binding
B3: F010302366 (VHH)
VHH: B1 VHH with Q28A, E54N, S55G, Q59N

Bmax (huNav1.7α + β1-β2-β3): 100%
EC50 (huNav1.7α + β1-β2-β3): 3.5 nM
Bmax (rhNav1.7α + β1-β2-β3): 58%
EC50 (rhNav1.7α + β1-β2-β3): 15 nM
B4: F010302360 (VHH)
VHH: B1 VHH with S26H, E54N, S55E, A64V

Bmax (huNav1.7α + β1-β2-β3): 100%
EC50 (huNav1.7α + β1-β2-β3): 5.6 nM
Bmax (rhNav1.7α + β1-β2-β3): 72%
EC50 (rhNav1.7α + β1-β2-β3): 15 nM
B5: F010302351 (VHH)
VHH: B1 VHH with Q40R, A64V

Bmax (huNav1.7α + β1-β2-β3): 100%
EC50 (huNav1.7α + β1-β2-β3): 7.2 nM
Bmax (rhNav1.7α + β1-β2-β3): 74%
EC50 (rhNav1.7α + β1-β2-β3): 17 nM
B6: F010302364 (VHH)
VHH: B1 VHH with S26H, Q28A, V33L, Q59N, A64V

Bmax (huNav1.7α + β1-β2-β3): 100%
EC50 (huNav1.7α + β1-β2-β3): 4.8 nM
Bmax (rhNav1.7α + β1-β2-β3): 92%
EC50 (rhNav1.7α + β1-β2-β3): 11 nM
B7: F010302361 (VHH)
VHH: B1 VHH with S26H, S55G, A64V

Bmax (huNav1.7α + β1-β2-β3): 100%
EC50 (huNav1.7α + β1-β2-β3): 5.4 nM
Bmax (rhNav1.7α + β1-β2-β3): 89%
EC50 (rhNav1.7α + β1-β2-β3): 14 nM
B8: F010302362 (VHH)
VHH: B1 VHH with S26H, Q28A, A64V

Bmax (huNav1.7α + β1-β2-β3): 100%
EC50 (huNav1.7α + β1-β2-β3): 4.3 nM
Bmax (rhNav1.7α + β1-β2-β3): 78%
EC50 (rhNav1.7α + β1-β2-β3): 13 nM
B9: F010302344 (VHH)
VHH: B1 VHH with S26H, E54N, S55E

Bmax (huNav1.7α + β1-β2-β3): 100%
EC50 (huNav1.7α + β1-β2-β3): 3.9 nM
binding result (rhNav1.7α + β1-β2-β3): no binding
B10: F010302368 (VHH)
VHH: B1 VHH with Q28A, E54N, S55G, Q59N, A64V

Bmax (huNav1.7α + β1-β2-β3): 100%
EC50 (huNav1.7α + β1-β2-β3): 3.5 nM
Bmax (rhNav1.7α + β1-β2-β3): 97%
EC50 (rhNav1.7α + β1-β2-β3): 6.8 nM
B11: F010302355 (VHH)
VHH: B1 VHH with S26H, Q28A, Q40R, S55G, A64V

Bmax (huNav1.7α + β1-β2-β3): 100%
EC50 (huNav1.7α + β1-β2-β3): 4.2 nM
Bmax (rhNav1.7α + β1-β2-β3): 96%
EC50 (rhNav1.7α + β1-β2-β3): 7.9 nM
B12: F010302354 (VHH)
VHH: B1 VHH with S26H, Q28A, Q40R, A64V

Bmax (huNav1.7α + β1-β2-β3): 100%
EC50 (huNav1.7α + β1-β2-β3): 4.6 nM
Bmax (rhNav1.7α + β1-β2-β3): 100%
EC50 (rhNav1.7α + β1-β2-β3): 9.6 nM
B13: F010302347 (VHH)
VHH: B1 VHH with S26H, Q28A, S55G

Bmax (huNav1.7α + β1-β2-β3): 100%
EC50 (huNav1.7α + β1-β2-β3): 5.3 nM
Bmax (rhNav1.7α + β1-β2-β3): 81%
EC50 (rhNav1.7α + β1-β2-β3): 12 nM
B14: F010302356 (VHH)
VHH: B1 VHH with S26H, Q28A, V33L, Q40R, Q59N, A64V

Bmax (huNav1.7α + β1-β2-β3): 100%
EC50 (huNav1.7α + β1-β2-β3): 5.3 nM
binding result (rhNav1.7α + β1-β2-β3): no binding
B15: F010302357 (VHH)
VHH: B1 VHH with E54N, S55E, Q59N, A64V

Bmax (huNav1.7α + β1-β2-β3): 100%
EC50 (huNav1.7α + β1-β2-β3): 6.4 nM
Bmax (rhNav1.7α + β1-β2-β3): 66%
EC50 (rhNav1.7α + β1-β2-β3): 24 nM
B16: F010302359 (VHH)
VHH: B1 VHH with A64V

Bmax (huNav1.7α + β1-β2-β3): 100%
EC50 (huNav1.7α + β1-β2-β3): 4.2 nM
Bmax (rhNav1.7α + β1-β2-β3): 96%
EC50 (rhNav1.7α + β1-β2-β3): 9.3 nM
B17: F010302363 (VHH)
VHH: B1 VHH with S26H, Q28A, S55G, A64V

Bmax (huNav1.7α + β1-β2-β3): 100%
EC50 (huNav1.7α + β1-β2-β3): 3.1 nM
binding result (rhNav1.7α + β1-β2-β3): no binding
B18: F010302365 (VHH)
VHH: B1 VHH with Q28A, Q40R, E54N, S55G, Q59N

Bmax (huNav1.7α + β1-β2-β3): 100%
EC50 (huNav1.7α + β1-β2-β3): 3.5 nM
Bmax (rhNav1.7α + β1-β2-β3): 46%
EC50 (rhNav1.7α + β1-β2-β3): 15 nM
B19: F010302350 (VHH)
VHH: B1 VHH with Q40R, E54N, S55E, A64V

Reference: patent publication US20240002497A1 (Merck Sharp & Dohme, published 2024)
